Reference: patent publication US20240010735A1 (EISAI R AND D MANAGEMENT, published 2024)

Legend:
Assay in all cases: ELISA: Fc-His proteins (1 nM) captured on anti-6-His antibody, antibody B 10 µg/mL with human IgG 100 µg/mL, HRP anti-human kappa light chain antibody, OD450 as % of mouse EphA4-Fc-His
[1] = target: T1, mouse EphA2 extracellular region-Fc-His protein (mouse, UniProt Q03145 26-538)
T1 construct: extracellular domain; Cloned into a pcDNA 3.1 vector separately from the other mouse Eph receptors; not shown: Fc; histidine tag
T1 sequence (Q03145 26-538): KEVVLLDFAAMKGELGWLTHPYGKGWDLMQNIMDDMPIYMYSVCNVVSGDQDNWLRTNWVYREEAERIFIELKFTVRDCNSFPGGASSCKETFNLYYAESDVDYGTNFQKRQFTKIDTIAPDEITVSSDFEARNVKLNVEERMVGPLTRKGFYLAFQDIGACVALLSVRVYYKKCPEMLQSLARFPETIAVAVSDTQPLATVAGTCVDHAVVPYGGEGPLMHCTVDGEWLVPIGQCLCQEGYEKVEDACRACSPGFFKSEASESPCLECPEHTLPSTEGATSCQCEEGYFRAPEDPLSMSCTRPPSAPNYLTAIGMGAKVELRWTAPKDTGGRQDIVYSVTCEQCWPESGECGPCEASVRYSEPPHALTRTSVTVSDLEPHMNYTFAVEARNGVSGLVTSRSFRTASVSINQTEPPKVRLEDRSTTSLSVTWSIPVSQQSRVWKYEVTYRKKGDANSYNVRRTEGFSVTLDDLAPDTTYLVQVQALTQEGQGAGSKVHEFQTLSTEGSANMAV
Procedure: (§1) Rabbit anti-6-His antibodies (Bethyl Laboratories) were coated onto the wells of a 96-well plate (Nunc). After incubating at 4° C. overnight, the wells were blocked at room temperature for 1 hour by 1% Block Ace (DS Pharma Biomedical). After washing 3 times with 0.05% Tween 20/PBS (Thermo […]), each Eph receptor of mouse extracellular region-Fc-His protein (final concentration 1 nM) was seeded into each well, and incubated at room temperature for 1 hour. After washing 3 times, human IgG solution (100 μg/mL, Sigma) and antibody B (10 μg/mL) were supplemented to the wells, and incubated at room temperature for 1 hour. Horseradish peroxidase-labeled goat anti-human Kappa Light Chain antibody (IBL) was added, and incubated at room temperature for 1 hour. After washing 3 times, TMBZ (3,3′,5,5′-tetramethylbenzidine, Sigma) solution was added to the wells, and upon confirmation of modest coloring, an equal amount of quenching solution (1 N H₂SO₄, Wako Pure Chemicals) was added to the wells, and absorbance at 450 nm was read by a microplate reader (PerkinElmer).

[2] = target: T2, mouse EphB2 extracellular region-Fc-His protein (mouse; human, UniProt P54763 19-543)
T2 construct: extracellular domain; not shown: Fc region of human IgG1; histidine tag
T2 sequence (looked up): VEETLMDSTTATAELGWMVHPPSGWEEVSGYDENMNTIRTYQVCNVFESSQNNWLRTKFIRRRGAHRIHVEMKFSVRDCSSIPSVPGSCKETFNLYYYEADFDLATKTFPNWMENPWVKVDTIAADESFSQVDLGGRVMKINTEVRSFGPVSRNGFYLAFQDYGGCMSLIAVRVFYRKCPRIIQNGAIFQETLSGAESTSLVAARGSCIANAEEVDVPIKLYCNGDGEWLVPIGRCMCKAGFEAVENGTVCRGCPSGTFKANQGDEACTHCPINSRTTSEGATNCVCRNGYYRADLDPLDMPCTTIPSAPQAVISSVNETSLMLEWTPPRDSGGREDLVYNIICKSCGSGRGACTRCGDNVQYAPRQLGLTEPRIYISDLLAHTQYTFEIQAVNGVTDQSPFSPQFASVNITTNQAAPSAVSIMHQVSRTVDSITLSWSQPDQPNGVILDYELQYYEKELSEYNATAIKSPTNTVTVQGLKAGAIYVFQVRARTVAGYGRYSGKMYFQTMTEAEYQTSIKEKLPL
Procedure: as §1

[3] = target: T3, mouse EphB3 extracellular region-Fc-His protein (mouse; human, UniProt P54754 30-554)
T3 construct: extracellular domain; not shown: Fc region of human IgG1; histidine tag
T3 sequence (looked up): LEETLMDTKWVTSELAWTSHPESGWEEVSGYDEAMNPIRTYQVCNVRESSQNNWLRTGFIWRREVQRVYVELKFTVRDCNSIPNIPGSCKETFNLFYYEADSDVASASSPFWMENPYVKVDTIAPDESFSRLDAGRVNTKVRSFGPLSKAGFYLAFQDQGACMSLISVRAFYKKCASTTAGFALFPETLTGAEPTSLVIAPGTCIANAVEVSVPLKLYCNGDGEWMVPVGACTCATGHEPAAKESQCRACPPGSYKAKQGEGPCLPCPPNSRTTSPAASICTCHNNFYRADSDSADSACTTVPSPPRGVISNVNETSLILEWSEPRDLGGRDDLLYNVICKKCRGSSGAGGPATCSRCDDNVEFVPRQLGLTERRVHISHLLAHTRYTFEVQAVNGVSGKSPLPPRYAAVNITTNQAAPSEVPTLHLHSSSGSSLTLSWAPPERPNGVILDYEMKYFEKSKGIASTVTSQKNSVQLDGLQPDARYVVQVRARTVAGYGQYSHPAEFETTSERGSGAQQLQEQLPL
Procedure: as §1

[4] = target: T4, mouse EphA7 extracellular region-Fc-His protein (mouse; human, UniProt Q61772 28-555)
T4 construct: extracellular domain; not shown: Fc region of human IgG1; histidine tag
T4 sequence (looked up): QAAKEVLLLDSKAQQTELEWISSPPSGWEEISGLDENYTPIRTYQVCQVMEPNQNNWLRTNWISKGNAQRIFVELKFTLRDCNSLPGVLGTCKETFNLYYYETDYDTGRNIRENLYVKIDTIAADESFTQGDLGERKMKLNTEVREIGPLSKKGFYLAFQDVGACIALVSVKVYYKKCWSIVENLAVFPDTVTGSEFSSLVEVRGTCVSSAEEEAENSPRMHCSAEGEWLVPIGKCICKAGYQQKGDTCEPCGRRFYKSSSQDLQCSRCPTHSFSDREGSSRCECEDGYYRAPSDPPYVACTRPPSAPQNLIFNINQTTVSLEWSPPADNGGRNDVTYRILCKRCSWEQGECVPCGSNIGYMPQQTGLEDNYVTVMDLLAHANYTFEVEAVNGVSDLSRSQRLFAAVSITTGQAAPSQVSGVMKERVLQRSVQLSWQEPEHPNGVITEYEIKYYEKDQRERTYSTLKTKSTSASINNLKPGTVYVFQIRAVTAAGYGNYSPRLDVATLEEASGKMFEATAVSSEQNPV
Procedure: as §1

Measured: binding result

B1: humanized anti-EphA4 monoclonal antibody (antibody B) (antibody, human IgG2, V domains shown)
VH: QVQLVESGGGVVQPGRSLRLSCAVSGFSLTRFGVHWVRQAPGKGLEWVAVIWRGGSTDYNAAFMSRLTISKDNSKNTVYLQMNSLRAEDTAVYYCAKESLFGVYYDYGYYSMDYWGQGTTVTVSS
VL: DIQMTQSPSSLSASVGDRVTITCRASQEISGYLSWLQQKPGKAPKRLIYAASTLDSGVPSRFSGSRSGTEYTLTISSLQPEDFATYYCLQYASYPLTFGGGTKVEIKR
notes: expressed in Expi293F cells; also called humanized antibody of antibody A; HK2-42 / L1-8
no binding (tested: 10 µg/mL): all assays above
